This is an account of results in the supplement of paper PMC7877785.

± gives the uncertainty stated by the source.

This data set in a line: self-splicing fitness, log relative to wild type (ln ratio); higher = more splicing; Tetrahymena group I intron in knt gene, E. coli kanamycin selection, DiMSum; sequences stand for … in CUCUCU…GGAGGGAAAAGUUAUCAGGCAUGCACCUGGUAGCUAGUCUUUAAACCAAUAGAUUGCAUCGGUUUAAAAGGCAAGACCGUCAAAUUGCGGGAAAGGGGUCAACAGCCGUUCAGUACCAAGUCUCAGGGGAAACUUUGAGAUGGCCUUGCAAAGGGUAUGGUAAUAAGCUGACGGACAUGGUCCUAACCACGCAGCCAAGUCCUAAGUCAACAGAUCUUCUGUUGAUAUGGAUGCAGUUCACAGACUAAAUGUCGGUCGGGGAAGAUGUAUUCUUCUCAUAAGAUAUAGUCGGACCUCUCCUUAAUGGGAGCUAGCGGAUGAAGUGAUGCAACACUGGAGCCGCUGGGAACUAAUUUGUAUGCGAAAGUAUAUUGAUUAGUUUUGGAGUACUCGUGGUCG
The gist of the method: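 The eight P1ex-region nucleotides of an intron in the knt kanamycin-resistance gene on pET-22b(+) were all randomised and the library put into E. coli BL21(DE3). Six replicate transformations were grown overnight at 37°C or 30°C on LB agar with or without 25 μg/mL kanamycin, together with 100 μg/mL carbenicillin, 50 μM IPTG and 0.2% rhamnose. Colonies were pooled and amplicon-sequenced on an Illumina HiSeq 2500. Fitness from DiMSum is the error-weighted combination of wild-type-normalised replicate fold changes, kanamycin over none.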

For UUACAGCAAUAUUACGGGGU, the “self-splicing fitness (ln)” value (30 °C) was -4.73 ± 0.22 and the “self-splicing fitness (ln)” value (37 °C) was -3.21 ± 0.17. The like results for AUCAAGCAAUAUUACGCGUA were, in that order, -1.02 ± 0.086 and -0.375 ± 0.08.

With UGCAAGCAAUAUUACGAACA, the “self-splicing fitness (ln)” value runs as follows: (30 °C) -1.23 ± 0.094; (37 °C) 0.193 ± 0.13. The matching figures for UCCCAGCAAUAUUACGAGCA: -0.711 ± 0.1 and 0.0665 ± 0.13. With ACUGAGCAAUAUUACGAAAA, the “self-splicing fitness (ln)” value (37 °C) is -1.32 ± 0.43. On to CGAGAGCAAUAUUACGACUC, for which the “self-splicing fitness (ln)” value is -2.03 ± 0.42 (30 °C) and -0.968 ± 0.39 (37 °C). As to GAUAAGCAAUAUUACGACGU, the “self-splicing fitness (ln)” value was -0.187 ± 0.076 (30 °C) and 0.339 ± 0.091 (37 °C). For ACUAAGCAAUAUUACGCGGC, the “self-splicing fitness (ln)” value by setting is: (30 °C) -3.74 ± 0.23; (37 °C) -1.85 ± 0.18. The like results for AGCUAGCAAUAUUACGGUGC were, in that order, -2.43 ± 0.17 and -2.03 ± 0.22. The like results for CCCAAGCAAUAUUACGUAUC were, in that order, -4.03 ± 0.14 and -2.52 ± 0.14. GGCCAGCAAUAUUACGCCCU: the “self-splicing fitness (ln)” value (30 °C) is -1.37 ± 0.16 and the “self-splicing fitness (ln)” value (37 °C) is -0.726 ± 0.15. As for UUCUAGCAAUAUUACGUGCG, the “self-splicing fitness (ln)” value reads like this: (30 °C) -1.98 ± 0.14; (37 °C) -2.14 ± 0.13. The like results for GUAGAGCAAUAUUACGGCCG were, in that order, -0.867 ± 0.16 and 0.266 ± 0.21. The like results for AGAUAGCAAUAUUACGGGUG were, in that order, -2.83 ± 0.2 and -1.88 ± 0.21. For the sequence GCCGAGCAAUAUUACGGAUU, the “self-splicing fitness (ln)” value (30 °C) was -1.37 ± 0.08 and the “self-splicing fitness (ln)” value (37 °C) is -0.945 ± 0.092. The like results for GCACAGCAAUAUUACGUAGC were, in that order, -2.19 ± 0.089 and -1.64 ± 0.12. The matching figures for CUUCAGCAAUAUUACGCCCA: -1.53 ± 0.31 and -0.354 ± 0.26. The matching figures for UCGCAGCAAUAUUACGGUGC: -4.1 ± 0.24 and -1.62 ± 0.15. Turning to UACAAGCAAUAUUACGUCGG, the “self-splicing fitness (ln)” value is, setting by setting: (30 °C) -2.46 ± 0.082; (37 °C) -0.921 ± 0.088. The matching figures for UAGAAGCAAUAUUACGGACA: -0.547 ± 0.11 and -0.0716 ± 0.13. As for CAAGAGCAAUAUUACGGUUG, the “self-splicing fitness (ln)” value (30 °C) was -2.72 ± 0.12 and the “self-splicing fitness (ln)” value (37 °C) was -2.25 ± 0.18. For UCAGAGCAAUAUUACGCAUA, under “30 °C”, the “self-splicing fitness (ln)” value was -3.19 ± 0.42. As to GCACAGCAAUAUUACGCCAG, the “self-splicing fitness (ln)” value is -1.99 ± 0.25 (30 °C) and -2.06 ± 0.26 (37 °C). On to CCUUAGCAAUAUUACGCACG, for which, under “30 °C”, the “self-splicing fitness (ln)” value was -2.02 ± 0.35. On the same count and under the same terms, the same measure for AAGAAGCAAUAUUACGCUUC: -3 ± 0.26. For CCCGAGCAAUAUUACGGGUU, the “self-splicing fitness (ln)” value (30 °C) is -3.82 ± 0.16 and the “self-splicing fitness (ln)” value (37 °C) was -2.89 ± 0.18. The matching figures for GAGCAGCAAUAUUACGGUUC: -3.92 ± 0.42 and -1.9 ± 0.38. Take GCUCAGCAAUAUUACGACUC: the “self-splicing fitness (ln)” value reads like this: (30 °C) -0.0981 ± 0.14; (37 °C) 0.646 ± 0.14. With GUCUAGCAAUAUUACGCAAC, the “self-splicing fitness (ln)” value reads like this: (30 °C) -1.33 ± 0.087; (37 °C) -0.643 ± 0.095. The like results for UUUCAGCAAUAUUACGGUUC were, in that order, -1.67 ± 0.17 and -1.82 ± 0.27. For GCUAAGCAAUAUUACGCUAG, the “self-splicing fitness (ln)” value is, setting by setting: (30 °C) -2.94 ± 0.35; (37 °C) -3.64 ± 0.4. The matching figures for ACUAAGCAAUAUUACGUCCU: -0.876 ± 0.095 and 0.0118 ± 0.14. The like results for AGUGAGCAAUAUUACGGCUG were, in that order, -2.19 ± 0.12 and -0.36 ± 0.16. The matching figures for ACCAAGCAAUAUUACGCCCG: -1.42 ± 0.14 and 0.129 ± 0.15.

Regarding GCAUAGCAAUAUUACGUGCA, the “self-splicing fitness (ln)” value by setting is: (30 °C) -2.74 ± 0.17; (37 °C) -1.21 ± 0.14. For the sequence ACAUAGCAAUAUUACGUCGA, the “self-splicing fitness (ln)” value was -1.95 ± 0.18 (30 °C) and -1.64 ± 0.15 (37 °C). The matching figures for UAGCAGCAAUAUUACGUCUG: -1.32 ± 0.14 and -1.6 ± 0.14.

Turning to UUCCAGCAAUAUUACGUAAG, the “self-splicing fitness (ln)” value (30 °C) is -1.42 ± 0.066 and the “self-splicing fitness (ln)” value (37 °C) is -0.28 ± 0.095.
